The source of these data is patent publication US20200002699 (published 2020).

The target in series [1] is T1, alpha-thrombin (Homo sapiens, UniProt P00734;P00734 P00734:328-363,P00734:364-622). In words: filter; NB, little or no binding; same buffer, 22 C.
Series [2] has as its target T1, alpha-thrombin. In words: filter; ±2.8; Fbmax 52.9; same buffer, 22 C.
Series [3] concerns the target T1, alpha-thrombin. In words: filter; ±0.3; Fbmax 65.3; same buffer, 22 C.
The target of series [4] is T1, alpha-thrombin. In words: filter; ±0.3; Fbmax 80.6; same buffer, 22 C.
In series [5] the target is T1, alpha-thrombin. Kind of series: filter; ±0.4; Fbmax 63.5; same buffer, 22 C.
The target of series [6] is T1, alpha-thrombin. In words: filter; ±0.9; Fbmax 84.5; same buffer, 22 C.
For series [7], the target named is T1, alpha-thrombin. In words: filter; ±0.2; Fbmax 92.3; 20 mM Tris pH 7.5, 150 mM NaCl, 2 mM MgSO4, 50 ug/mL BSA, 22 C.
For series [8], the target named is T1, alpha-thrombin. Kind of series: filter; ±4.6; Fbmax 95.6; same buffer, 22 C.
The target in series [9] is T1, alpha-thrombin. Kind of series: filter; truncated form; 2 mM MgSO4 buffer.
Series [10] concerns the target T1, alpha-thrombin. In words: BLI; ±0.002; kon 91.9e4 M-1 s-1, koff 4.12e-4 s-1; RNA immobilized on streptavidin sensor; 20 mM Tris pH 7.5, 150 mM NaCl, 2 mM MgSO4, 2 mg/mL BSA, 0.1% Tween-20. In general terms: BLI is a label-free optical method that tracks binding on a fibre tip over time.
The target in series [11] is T1, alpha-thrombin. In words: filter; ±1.9; Fbmax 74.5; same buffer, 22 C.

Numbering of substitutions follows the chain as printed.

B1: Clone 7 (ssRNA)
RNA: GGAGAGGGAAUGAUAACGAGCCCGAAGCUCGGAGAAGCACAGAAGCAAGUGACACAAAGCCCGG
As for B1, the binding result in the series with alpha-thrombin [1] was “no binding”.

B2: Clone 5 (ssRNA)
RNA: GGAGAGGUAGGAGAACGAGCCUACCGUAAGAGAACGAGCAGACUCAAGUGACACAAAGCCCGG
With B2, the binding result with alpha-thrombin [1] is given as “no binding”.

B3: Clone 10 (ssRNA)
RNA: GGAGACGGAAGGAUAACGAGCGCUUUGACACAAGAUACAAUAUAGUAAGUGACACCAAGCCCGG
For orientation: Kd means the concentration at which binding is half-saturated. As for B3, the affinity with alpha-thrombin [2], expressed as Kd, was 36.4 nM. That is a double-digit nanomolar value.

B4: Clone 3 (ssRNA)
RNA: GGAGAGGGAAGGAGAACGAACCGGGACUCACAAGAUAGACAAUACUAAGUGACACAAAGCCCGG
Turning to B4, the dissociation constant (Kd) in the series with alpha-thrombin [3] came out at 2.4 nM.

B5: Clone 2 (ssRNA)
RNA: B4 RNA with G8U, G12U, A20G, G23C, A26C, C27G, U43A
In the case of B5, the dissociation constant Kd with alpha-thrombin [4] came to 3.5 nM.

B6: Clone 8 (ssRNA)
RNA: GGAGAGCGAAGAGAACGAGCGGGAUUGCACAAGAUAGCGUAGACUAAGUGACACAAAGCCCGG
In turn, B6 yielded a Kd with alpha-thrombin [5] of 1.6 nM.

B7: Clone 4 (ssRNA)
RNA: GGAGAGGGAAGGAGAACGGCUGCGGAUAACAAGAUAGCAAAGACUAAGUGACACAAAGCCCGG
In the series with alpha-thrombin [6], B7 yielded a dissociation constant (Kd) of 10 nM.

B8: Clone 9 (ssRNA)
RNA: GGAGAGGGAAAGAGAACGAGCGGGUGUUCACAAGAUAGAGUAGACUAAGUGACACAAAGCCCGG
Turning to B8, binding with alpha-thrombin [7] was put at a Kd of 1.4 nM.

B9: Clone 1 (ssRNA)
RNA: GGAGAGAGAAGGAGAACGAGCUGUUACUCACAAAAUAGCGAAGACUAAGUGACACAAAGCCCGG
B9 came in with a Kd with alpha-thrombin [8] of 44.7 nM.
Regarding GUGUUCACAAGAUAGAGUAGACUAAGUGACAC (ssRNA) [Truncated clone 9], the Kd was determined as 2 nM with alpha-thrombin [9] and 0.448 nM with alpha-thrombin [10].

B10: Clone 6 (ssRNA)
RNA: GGAGAGGGAAGGAGAACGAGCCGGGACACUAAGGAACAUAAAAGUUAAGUGACACAAAGCCCGG
The molecule B10 gave a Kd with alpha-thrombin [11] of 13.8 nM.
